{
  "source": "ChEMBL document CHEMBL2073968",
  "about": "“Multidrug resistance protein 4 (MRP4/ABCC4) mediates efflux of bimane-glutathione” (Int J Biochem Cell Biol, 2004)",
  "substrate": "[H][C@@]12CC=C3C[C@@H](OS(=O)(=O)O)CC[C@]3(C)[C@@]1([H])CC[C@]1(C)C(=O)CC[C@@]21[H]",
  "experiment": "TP_TRANSPORTER: uptake in membrane vesicles from MRP1-expressing Sf9 cells",
  "format": "functional, cell membranes, Membrane vesicle",
  "data": [
    {"protein": "Multidrug resistance-associated protein 1 (Homo sapiens) (protein) MALRGFCSADGSDPLWDWNVTWNTSNPDFTKCFQNTVLVWVPCFYLWACFPFYFLYLSRHDRGYIQMTPLNKTKTALGFLLWIVCWADLFYSFWERSRGIFLAPVFLVSPTLLGITMLLATFLIQLERRKGVQSSGIMLTFWLVALVCALAILRSKIMTALKEDAQVDLFRDITFYVYFSLLLIQLVLSCFSDRSPLFSETIHDPNPCPESSASFLSRITFWWITGLIVRGYRQPLEGSDLWSLNKEDTSEQVVPVLVKNWKKECAKTRKQPVKVVYSSKDPAQPKESSKVDANEEVEALIVKSPQKEWNPSLFKVLYKTFGPYFLMSFFFKAIHDLMMFSGPQILKLLIKFVNDTKAPDWQGYFYTVLLFVTACLQTLVLHQYFHICFVSGMRIKTAVIGAVYRKALVITNSARKSSTVGEIVNLMSVDAQRFMDLATYINMIWSAPLQVILALYLLWLNLGPSVLAGVAVMVLMVPVNAVMAMKTKTYQVAHMKSKDNRIKLMNEILNGIKVLKLYAWELAFKDKVLAIRQEELKVLKKSAYLSAVGTFTWVCTPFLVALCTFAVYVTIDENNILDAQTAFVSLALFNILRFPLNILPMVISSIVQASVSLKRLRIFLSHEELEPDSIERRPVKDGGGTNSITVRNATFTWARSDPPTLNGITFSIPEGALVAVVGQVGCGKSSLLSALLAEMDKVEGHVAIKGSVAYVPQQAWIQNDSLRENILFGCQLEEPYYRSVIQACALLPDLEILPSGDRTEIGEKGVNLSGGQKQRVSLARAVYSNADIYLFDDPLSAVDAHVGKHIFENVIGPKGMLKNKTRILVTHSMSYLPQVDVIIVMSGGKISEMGSYQELLARDGAFAEFLRTYASTEQEQDAEENGVTGVSGPGKEAKQMENGMLVTDSAGKQLQRQLSSSSSYSGDISRHHNSTAELQKAEAKKEETWKLMEADKAQTGQVKLSVYWDYMKAIGLFISFLSIFLFMCNHVSALASNYWLSLWTDDPIVNGTQEHTKVRLSVYGALGISQGIAVFGYSMAVSIGGILASRCLHVDLLHSILRSPMSFFERTPSGNLVNRFSKELDTVDSMIPEVIKMFMGSLFNVIGACIVILLATPIAAIIIPPLGLIYFFVQRFYVASSRQLKRLESVSRSPVYSHFNETLLGVSVIRAFEEQERFIHQSDLKVDENQKAYYPSIVANRWLAVRLECVGNCIVLFAALFAVISRHSLSAGLVGLSVSYSLQVTTYLNWLVRMSSEMETNIVAVERLKEYSETEKEAPWQIQETAPPSSWPQVGRVEFRNYCLRYREDLDFVLRHINVTINGGEKVGIVGRTGAGKSSLTLGLFRINESAEGEIIIDGINIAKIGLHDLRFKITIIPQDPVLFSGSLRMNLDPFSQYSDEEVWTSLELAHLKDFVSALPDKLDHECAEGGENLSVGQRQLVCLARALLRKTKILVLDEATAAVDLETDDLIQSTIRTQFEDCTVLTIAHRLNTIMDYTRVIVLDKGEIQEYGAPSDLLQQRGLFYSMAKDAGLV", "values": [
      {"measurement": "Km", "result": 5, "unit": "µM"}
    ]}
  ]
}
